Read-outs that look alike come from different tables or passages of the source.
What was measured:
[1] = target: T1, Aβ1-42 (rPeptide, A-1167-2) (UniProt P05067 672-713); test: direct ELISA, coated Aβ1-42
T1 construct: domain: Aβ1-42; also called Abeta 1-42

[2] = target: T2, biotin-labelled Aβ1-40 monomer (AnaSpec, AS-61483-01) (UniProt P05067 672-711, biotin label, position not stated); test: capture ELISA, coated antibody, biotin-Aβ1-40 monomer
T2 construct: domain: Aβ1-40; also called biotin-conjugated Aβ40 monomer; biotin-Aβ monomer

[3] = target: T3, pyroglutamate-modified Aβ (Aβp3-42) (AnaSpec, AS-29907-01) (UniProt P05067 674-713, pyroglutamate at Aβ position 3 (the N-terminus)); test: direct ELISA, coated Aβp3-42
T3 construct: domain: Aβp3-42; also called Abeta p3-42

[4] = target: T4, HiLyte488 labelled Aβ1-42 protofibrils (UniProt P05067 672-713, HiLyte488 fluorophore on part of the peptides (labelled and unlabelled Aβ1-42 monomers mixed 1:5)); test: cell-based or functional assay
[5] = target: T1, Aβ1-42 (rPeptide, A-1167-2); test: direct ELISA, coated Aβ1-42; remark: listed apart in the source
Method: Direct ELISA was used to test each antibody's affinity for Aβ₁₋₄₂ and pyroglutamate-modified Aβ (Aβₚ₃₋₄₂). Plates were coated with 0.5 μM of Aβ₁₋₄₂ (rPeptide, A-1167-2) or Aβₚ₃₋₄₂ (AnaSpec, AS-29907-01) for 2 h at 4° C. Diluents of antibodies (3-fold serial dilutions with concentrations in the range of 0-100 nM) were added to the plate for 1 h at RT. Binding of antibody to immobilized Aβ on each plate was detected by HRP-labeled secondary antibody and TMB substrate, as described in Example 2.

[6] = target: T2, biotin-labelled Aβ1-40 monomer …; test: capture ELISA, coated antibody, biotin-Aβ1-40 monomer; remark: listed apart in the source
Method: (§1) A 96-well plate was coated with 5 μg/mL of antibodies overnight at RT. The plate was then treated with diluents of biotin-labelled Aβ₁₋₄₀ monomers (AnaSpec, AS-61483-01, 4-fold serial dilutions with concentrations in the range of 0-1000 nM) for 1 h at RT. The binding of biotin-labelled Aβ₁₋₄₀ monomers with immobilized antibody was detected by HRP-conjugated streptavidin and TMB, as described in Example 2.

[7] = target: T1, Aβ1-42 (rPeptide, A-1167-2); test: direct ELISA, coated Aβ1-42; remark: listed apart in the source
[8] = target: T2, biotin-labelled Aβ1-40 monomer …; test: capture ELISA, coated antibody, biotin-Aβ1-40 monomer; remark: listed apart in the source
Method: The plate was incubated for 1 h at RT and washed 3 times with PBST. The plate was then incubated with HRP-conjugated streptavidin (Thermo Fisher Scientific, SNN2004) at 1:5000 diluted in 1% BSA for 20 min at RT and washed 3 times. TMB Stabilized Chromogen substrate solution (Life Technologies, SB02) was added to the plate, and the reaction was stopped by adding 1M sulfuric acid. The absorbance at 450 nm was measured in a plate reader.
as §1

[9] = target: T4, HiLyte488 labelled Aβ1-42 protofibrils; test: cell-based or functional assay; remark: listed apart in the source
[10] = target: T1, Aβ1-42 (rPeptide, A-1167-2); test: direct ELISA, coated Aβ1-42; remark: listed apart in the source

Row | ADCP (RFU) [4] [RFU] | EC50 [5] [nM] | EC50 [6] [nM] | Binder | other results
1 |  |  |  | 17P04A(hIgG1) (antibody, fully human IgG1 lambda, expressed in CHO cells; also called Fully human 17P04A (hlgG1)) heavy: not shown light: QTVVTQEPSLTVSPGGTVTLTCASSTGAVTSDYYPNWFQQKPGQAPRALIYSASTKHSWTPARFSGSLLGGKAALTLSGVQPEDEADYYCLLYYGGAWVFGGGTKLTVLGQPKAAPSVTLFPPSSEELQANKATLVCLISDFYPGAVTVAWKADSSPVKAGVETTTPSKQSNNKYAASSYLSLTPEQWKSHRSYSCQVTHEGSTVEKTVAPTECS | EC50 [1]: 0.062 nM; EC50 [2]: 33.8 nM; EC50 [3]: 38.7 nM
2 | 99100 | 0.075 | 0.07 | 22H10A (antibody, V domains shown) VH: EMQLVESGGGLVKPGGSLRLSCAASGFTFSSYSMNWVRQAPGKGLEWVSSISTRKNYIYYADSVQGRFIFSRDNAKNALYLQMNSLRAEDSAVYYCTRGGYIRSPNAFDIWGQGTMVTVSS VL: QTVVTQEPSLTVSPGGTVTLTCASSTGTVTSGYFPNWLQQKPGQAPRALIYSINNKHFWTPARFSGSLLGGKAALTLSGVQPEDEAEYYCLLYYGGAWVFGGGTKLTVL | 
3 |  |  |  | 18P01A(mIgG2a) (antibody, chimeric: human F(ab')2, mouse IgG2a CH2-CH3, recombinant) heavy: EVQLVESGGGLVQPGGSLKLSCAVSGFTFSGSAMHWVRQASGKGLEWVGRIRSKANSYATAYAASVKGRFTISRDDSKNTAFLQMNSLKTEDTAVYYCTSHAPNFDAFDIWGQGTMVTVSSASTKGPSVFPLAPCSRSTSESTAALGCLVKDYFPEPVTVSWNSGALTSGVHTFPAVLQSSGLYSLSSVVTVPSSNFGTQTYTCNVDHKPSNTKVDKTVERKCPPCKCPAPNLLGGPSVFIFPPKIKDVLMISLSPIVTCVVVDVSEDDPDVQISWFVNNVEVHTAQTQTHREDYNSTLRVVSALPIQHQDWMSGKEFKCKVNNKDLPAPIERTISKPKGSVRAPQVYVLPPPEEEMTKKQVTLTCMVTDFMPEDIYVEWTNNGKTELNYKNTEPVLDSDGSYFMYSKLRVEKKNWVERNSYSCSVVHEGLHNHHTTKSFSRTPGK light: QSVLTQPPSVSAAPGQKVTISCSGSSSNIGNHYVSWYQQLPGTAPKFFIYDNSKRPSGIPDRFSGSKSGTSATLGITGLQTGDEADYYCGTWDSSLSTYVFGTGTKVTVLGQPKAAPSVTLFPPSSEELQANKATLVCLISDFYPGAVTVAWKADSSPVKAGVETTTPSKQSNNKYAASSYLSLTPEQWKSHRSYSCQVTHEGSTVEKTVAPTECS | EC50 [7]: 0.087 nM; EC50 [8]: 248 nM; ADCP (RFU) [9]: 488000 RFU
4 |  |  |  | 18P01A(hIgG1) (antibody, fully human IgG1 lambda, expressed in CHO cells; also called Fully human 18P01A (hlgG1); fully human 18P01A) heavy: not shown light: QSVLTQPPSVSAAPGQKVTISCSGSSSNIGNHYVSWYQQLPGTAPKFFIYDNSKRPSGIPDRFSGSKSGTSATLGITGLQTGDEADYYCGTWDSSLSTYVFGTGTKVTVLGQPKAAPSVTLFPPSSEELQANKATLVCLISDFYPGAVTVAWKADSSPVKAGVETTTPSKQSNNKYAASSYLSLTPEQWKSHRSYSCQVTHEGSTVEKTVAPTECS | EC50 [1]: 50 nM; EC50 [2]: 917 nM; EC50 [3]: 196 nM; fold increase of EC50 against the original chimeric 18P01A [10]: > 800 fold
5 | 194000 | 0.075 | 0.34 | 17D08A (antibody, V domains shown) VH: EVQLVESGGGLVQPGGSLKLSCAASGFTFSGSAIHWVRQASGKGLEWVGRIRSKVNSYATAYAASVKGRFTISRDDSKNTAYLQMNSLKTEDTAVYYCTRHAPNFDAFDIWGQGTMVTVSS VL: QSVLTQPPSVSAAPGQKVTISCSGYSSNIGNHYVSWYQQLPGTAPKFFIYDNNKRPSGIPDRFSGSKSGTSATLGITGLQTGDEADYYCGTWDSSLITYVFGTGTKVTVL | 
6 | 245000 | 0.042 | 0.02 | 21G10A (antibody, V domains shown) VH: EVQLVESGGGSVQPGGSLRLSCAASGFTFSSYWMHWVRQAPGKGLVWVSRINSDGSITTYADSVKGRFTISRDNAKNTLYLQMNSLRAEDTAVYYCARGGGSLDYWGQGTLVTVSS VL: QSVLTQPPSVSAAPGQKVTISCSGSSSNIGNYYVSWYQQLPGTAPKLLIYDNNKRPSGIPDRFSGSKSGTSATLGITGLQTGDEADYYCGTWDSSLSAVVFGGGTKLTVL | 
7 | 273000 | 0.038 | 0.78 | 15M13A (antibody, V domains shown) VH: QVTLKESGPGILQPSQTLSLTCSFSGFSLSTFGMGVGWIRQPSGKGLEWLAHIWWDDDKYYNPALKSRLTISKDTSKNQVFLKIANVDTADTATYYCARLGYYPYWFFDVWGTGTTVTVSS VL: QSVLTQPPSVSAAPGQKVTISCSGSSSNIGNHYVSWYQQLPGTAPKLLIYDNNKRPSGIPDRFSGSKSGTSATLGITGLQTGDEADYYCGTWDTSLSAVVFGGGTKLTVL | 
8 | 279000 | 0.051 | 0.02 | 17H05A (antibody, V domains shown) VH: EVQLVESGGGSVQPGGSLRLSCAASGFTFSSYWMHWVRQVPGKGLVWVSRINSDGSITSYADSVKGRFTISRDNAKNTLYLQMNSLRAENTAVYYCARGGGSLDYWGQGTLVTVSS VL: QSVLTQPPSVSAAPGQKVTISCSGSSSNIGNYYVSWYQQLPGTAPKLLIYDNHKRPSGIPDRFSGSKSGTSATLGITGLQTGDEADYYCGTWDSSLSAVVFGGGTKLTVL | 
9 | 257000 | 0.05 | 0.01 | 20O11A (antibody, V domains shown) VH: EVQLVESGGGLVQPGGSLRLSCAASGFTFSSYWMHWVRQAPGKGLAWVARINSDGSSTSYADSVKGRFTISRDNAKNTLYLQMNSLRAEDTAVYYCARGGGLFDYWGQGTLVTVSS VL: QSVLTQPPSVSAAPGQKVTISCSGSSSNIGNHYVSWYQQLPGTAPKLLIYDNNKRPSGIPDRFSGSKSGTSATLGITGLQTGDEADYYCGTWDSSLGAVLFGGGTKLTVL | 
10 | 262000 | 0.048 | 0.01 | 21F12A (antibody, V domains shown) VH: EVQLAESGGGSVQPGGSLRLSCAASGFTFSSYWMHWVRQVPGKGLVWVSRINSDGSTTTYADSVKGRFTISRDNAKNTLYLQMNSLRAEDTAVYYCARGGGSLDYWGQGTLVTVSS VL: QSVLTQPPSVSAAPGQKVTISCSGSSSNIGNYYVSWYQQLPGTAPKLLIYDNNKRPSGIPDRFSGSKSGTSATLGITGLRTGDEADYYCGTWDSSLSAVVFGGGTKLTVL | 
11 | 126000 | 0.068 |  | 18F06A (antibody, V domains shown) VH: EVQLVESGGGLVQPGGSLRLSCAASGFTFSSYWMHWVRQAPGKGLVWVSRINRDGSTTSYADSVKGRFTISRDNAKNTLYLQMNRLRAEDTAVYYCARGGGAFDIWGQGTMVTVSS VL: QSVLTQPPSVSAAPGQKVTISCSGSSSNIGNYYVSWYQQLPGTAPKLLIYDNNKRPSGIPDRFSASKSGTSATLGITGLQTGDEADYYCGTWDDSLSAVVFGGGTKLTVL | 

From patent US20240301046A1 (MABWELL THERAPEUTICS, published 2024)
